Experimental data reported in publication PMC12298772.
Several values for one entry are separate records, joined by “and”; a condition that tells them apart may be missing. Equal values may be shown once.

What was measured:
Assay in all cases: Number and Brightness (N&B) fluorescence fluctuation microscopy
[1] = target: PUUV SP-mCh2-Gc (Puumala orthohantavirus glycoprotein Gc labelled with mCherry2) (Puumala orthohantavirus (PUUV), strain Sotkamo/V-2969/81)
[2] = target: PUUV YFP-NP (Puumala orthohantavirus nucleoprotein labelled with yellow fluorescent protein) (Puumala orthohantavirus (PUUV), strain Sotkamo/V-2969/81) (UniProt P27313)
[3] = target: PUUV SP-mCh2-Gn (Puumala orthohantavirus glycoprotein Gn labelled with mCherry2) (Puumala orthohantavirus (PUUV), strain Sotkamo/V-2969/81)

“PUUV SP-mCh2-Gc (Puumala orthohantavirus glycoprotein Gc labelled with mCherry2) (natural protein)” gave a stoichiometry N [1] of less than 8.
With “PUUV YFP-NP (Puumala orthohantavirus nucleoprotein labelled with yellow fluorescent protein) (from UniProt P27313 1-433) (natural protein)” the stoichiometry N [2] was < 10 and 4 and 8.
“PUUV SP-mCh2-Gn (Puumala orthohantavirus glycoprotein Gn labelled with mCherry2) (natural protein)” was tested, and the stoichiometry N [3] was less than 4.
